Laboratory results: US20200055914A1

Experiments:
[1] = size-exclusion chromatography, zinc- and phenol-free (self-association control)
[2] = molecular target: lectin-purified insulin receptor (isoform B) (UniProt P06213); experiment: receptor-binding assay with lectin-purified insulin receptor

| affinity relative to human insulin [2] [%] | Substance | molecular weight by SEC [1] |
| --- | --- | --- |
| – | Lys^B28, Pro^B29 (Lispro) insulin | The molecular weight (MW; or molecular mass) of the species was 3.1 kDa |
| 50 | Trp^B26, Orn^B29 insulin analogue (ligand) | – |
